Data published in patent US20200289603A1 (ELIXIRON IMMUNOTHERAPEUTICS HONG KONG, published 2020).

Legend:
[1] = target: recombinant human IFNγ protein (R&D systems, 285-IF-100) (human) (UniProt P01579); assay: BLI (ForteBio Octet RED96); summary sentence to Table 10
[2] = target: recombinant human IFNγ protein (R&D systems, 285-IF-100) (human) (UniProt P01579); assay: BLI (ForteBio Octet RED96); antibody captured on AHC anti-hIgG Fc biosensor, recombinant human IFNγ in solution; 1:1 Langmuir fit
[3] = target: T1, recombinant human IFNγ protein (R&D systems, 285-IF-100) (human, UniProt P01579 24-166); assay: BLI (ForteBio Octet RED96); summary sentence to Table 9
T1 construct: it may include the signal peptide; also called IFNg; interferon-gamma
T1 sequence: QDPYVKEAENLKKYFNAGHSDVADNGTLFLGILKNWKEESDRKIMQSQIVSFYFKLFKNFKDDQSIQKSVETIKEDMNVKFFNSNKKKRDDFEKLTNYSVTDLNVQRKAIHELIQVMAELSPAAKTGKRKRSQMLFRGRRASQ

BSA = target: T2, BSA (UniProt P02769 25-607); assay: ELISA on plate coated with BSA (2 µg/mL)
T2 construct: also called bovine serum albumin
T2 sequence (P02769 25-607 limits assumed): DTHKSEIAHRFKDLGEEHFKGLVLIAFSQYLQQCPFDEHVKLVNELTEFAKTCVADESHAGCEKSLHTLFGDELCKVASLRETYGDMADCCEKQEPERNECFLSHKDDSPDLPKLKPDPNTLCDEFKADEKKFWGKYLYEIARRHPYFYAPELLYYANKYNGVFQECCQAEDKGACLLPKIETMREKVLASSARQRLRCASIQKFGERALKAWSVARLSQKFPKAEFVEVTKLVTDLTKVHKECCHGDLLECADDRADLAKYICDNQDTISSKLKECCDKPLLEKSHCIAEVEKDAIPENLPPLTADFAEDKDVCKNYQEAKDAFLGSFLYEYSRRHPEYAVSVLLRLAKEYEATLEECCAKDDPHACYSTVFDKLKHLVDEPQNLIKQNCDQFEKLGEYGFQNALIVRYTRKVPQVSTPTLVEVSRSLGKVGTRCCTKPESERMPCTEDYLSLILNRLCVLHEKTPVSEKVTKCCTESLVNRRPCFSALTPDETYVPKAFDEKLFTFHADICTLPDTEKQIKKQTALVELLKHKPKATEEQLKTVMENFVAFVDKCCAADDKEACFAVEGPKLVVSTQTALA

[4] = target: T1, recombinant human IFNγ protein (R&D …); assay: cell-based or functional assay
[5] = target: T1, recombinant human IFNγ protein (R&D …); assay: BLI (ForteBio Octet RED96); summary sentence to Table 10

AMG811 (antibody) was tested. Which Kd [1] did it give?
Its Kd is less than 0.1 nM.

B1: 1E8 (antibody, from a related filing, V domains shown)
VH: EVQLLESGGGLVQPGGPLRLSCAASGFTFSIYSMNWVRQAPGKGLEWVSSISGSGDNTYYADSVKGRFTITRDSSKNTLYLQMNTLRAEDTAVYFCAKSGRNIISPGFDSWGQGTLVTVSS
VL: QPVLTQPPSASASLGASVTLTCTLNSDYGDYKVDWYQQRPGKGPRFVMRVGTGGIVGSKGDGIPDRFSVLGSGLNRFLTIKNIQEEDESDYYCGADHGSANNFIWVFGGGTKLTVL
How did the Kd [2] turn out when B1 was run?
Its Kd is 0.261 nM.

And the koff [2]?
Its koff is 0.000121 s⁻¹.

And the kon [2]?
The kon was 464000 M⁻¹ s⁻¹.

B2: 2A6 (antibody, human IgG1, lambda, V domains shown)
VH: EVQLVESGGGLVKPGDSLTVSCVASGFTFSNYFIHWVRQAPGKGLEWVATISGRTKYMFYSDSLRGRFTVSRDNANNSVYLHMSSLRGEDTALYYCVRGYDHSDSNSAADLLHWGRGTLVTVSS
VL: NFMLTQPLSVSGYPGKTIVISCVRSSGSVASHYVQWFQQRPGSAPAMVIYEDSHRPSGIPDRFSGSVDASSNSASLTISGLKTEDEADYFCQSYYGNNQVLFGGGTKLTVLG
modifications: partial N-linked glycosylation at position 76 of the VH region
notes: Human IgG1 lambda, cloned from a single patient B cell and expressed in FreeStyle 293-F cells; also called 2A6 anti-IFNγ mAb
What does the source list for B2?
Kd [3]: < 0.1 nM; binding result (BSA): no binding (tested: 1 µg/mL and 0.1 µg/mL); inhibition of HLA-DR expression on THP-1 cells stimulated with 2 ng/mL recombinant human IFN-γ, IC50 [4]: 3.4 ng/mL

B3: AB (antibody, V domains shown)
VH: B2 VH
VL: NFMLTQPHSVSESPGKTITISCTRGRGYIASYYVQWYQQRPGGVPKIVVFEDTQRPSGVPDRISGSIDTSTNSASLTISGLQTEDEADYYCQSYDDANHVIFGGGTKLTVLG
What does the source list for B3?
binding result (BSA): no binding (tested: 1 µg/mL and 0.1 µg/mL); Kd [5]: < 0.1 nM

B4: 2B6 (antibody, human IgG1, lambda, V domains shown)
VH: EVQLVESGGGLVKPGGSLRLSCAASGFPFSRYSMHWVRQAPGKGLEWVSSMTSRTNHKYYADSLKGRFLISRDNDRDSLYLEMNSLGVEDTAIYFCARGYDTSGSDSGVDFQYWGQGTLVTVSS
VL: B3 VL
notes: Human IgG1 lambda; also called 2B6 anti-IFNγ mAb
What does the source list for B4?
Kd [3]: < 0.1 nM; binding result (BSA): no binding (tested: 1 µg/mL and 0.1 µg/mL); inhibition of HLA-DR expression on THP-1 cells stimulated with 2 ng/mL recombinant human IFN-γ, IC50 [4]: 3.5 ng/mL

B5: BA (antibody, V domains shown)
VH: B4 VH
VL: NFMLTQPLSVSGYPGKTIVISCVRSSGSVASHYVQWFQQRPGSAPAMVIYEDSHRPSGIPDRFSGSVDASSNSASLTISGLKTEDEADYFCQSYYGNNQVLFGGGTKLTVL
notes: Expressed from the same human IgG1 lambda vector as 2A6 and 2B6; also called antibody having the 2B6-VH and 2A6-VL
Does B5 bind (BSA)?
Result: no binding (tested: 1 µg/mL and 0.1 µg/mL)

B6: 2F2 (antibody, from a related filing, V domains shown)
VH: EVQLVESGGGLVKPGESLRLACVASGFNFSDYYMTWIRQAPGKGLEWVSYISNSGSHTYYADAVKGRFTVSRDNAKNSLYLQMTSLRGEDTAIYFCARDPSIMRGTYYMDVWGKGTTVTVSS
VL: QSVLTQPPSASGTPGQRVTISCSGSSSNIGTNPVSWYQQFPGMAPKLLIYFNNQRPSGVPERFSGSKSGTPASLAIGGLQSEDEANYYCASWDDTLNGLVFGGGTKLTVL
For B6, which Kd [2] is on record?
Its Kd is 0.317 nM.

What about the koff [2] of the same molecule?
The koff was 0.000109 s⁻¹.

And the kon [2]?
Its kon is 344000 M⁻¹ s⁻¹.
